Data as given in US20060233822A1 (YANG SHENG TANG, published 2006).
Positions count from the first letter of the chain named.

Experiments:
NE2 mutant 601LI = molecular target: T1, NE2 mutant 601LI (hepatitis E virus, UniProt P29326 394-600); test: WB
T1 chain: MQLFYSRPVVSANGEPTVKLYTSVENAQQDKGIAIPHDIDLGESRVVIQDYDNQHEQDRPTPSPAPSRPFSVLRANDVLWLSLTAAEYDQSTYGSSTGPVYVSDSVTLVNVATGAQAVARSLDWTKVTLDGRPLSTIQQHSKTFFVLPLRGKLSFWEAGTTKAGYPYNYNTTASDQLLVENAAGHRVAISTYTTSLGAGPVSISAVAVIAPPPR

NE2 mutant 601LP = molecular target: T2, NE2 mutant 601LP (hepatitis E virus, UniProt P29326 394-600); test: WB
T2 construct: position counted on HEV ORF2
T2 chain: T1 chain with I209P

NE2 mutant 601LG = molecular target: T3, NE2 mutant 601LG (hepatitis E virus, UniProt P29326 394-600); test: WB
T3 construct: position counted on HEV ORF2
T3 chain: T1 chain with I209G

NE2 mutant 601LC = molecular target: T4, NE2 mutant 601LC (hepatitis E virus, UniProt P29326 394-600); test: WB
T4 construct: position counted on HEV ORF2
T4 chain: T1 chain with I209C

NE2 mutant 601LE = molecular target: T5, NE2 mutant 601LE (hepatitis E virus, UniProt P29326 394-600); test: WB
T5 construct: position counted on HEV ORF2
T5 chain: T1 chain with I209E

NE2 mutant 601LQ = molecular target: T6, NE2 mutant 601LQ (hepatitis E virus, UniProt P29326 394-600); test: WB
T6 construct: position counted on HEV ORF2
T6 chain: T1 chain with I209Q

polypeptide 239 = molecular target: T7, polypeptide 239 (hepatitis E virus, UniProt P29326 368-603); test: Western blot
T7 sequence: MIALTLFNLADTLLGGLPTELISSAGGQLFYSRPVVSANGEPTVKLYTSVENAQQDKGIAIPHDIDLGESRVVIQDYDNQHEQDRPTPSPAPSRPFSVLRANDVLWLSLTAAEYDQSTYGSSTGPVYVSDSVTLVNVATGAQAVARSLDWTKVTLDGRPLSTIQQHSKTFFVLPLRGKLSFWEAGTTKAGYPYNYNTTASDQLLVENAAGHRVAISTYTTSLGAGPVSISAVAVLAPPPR

NE2 mutant 601LD = molecular target: T8, NE2 mutant 601LD (hepatitis E virus, UniProt P29326 394-600); test: Western blot of NE2 mutant proteins with monoclonal antibody 16D7
T8 construct: position counted on HEV ORF2
T8 chain: T1 chain with I209D

NE2 mutant 601LH = molecular target: T9, NE2 mutant 601LH (hepatitis E virus, UniProt P29326 394-600); test: as above
T9 construct: position counted on HEV ORF2
T9 chain: T1 chain with I209H

NE2 mutant 602AE = molecular target: T10, NE2 mutant 602AE (hepatitis E virus, UniProt P29326 394-601); test: as above
T10 construct: position counted on HEV ORF2
T10 chain: T1 chain with I209L, A210E

Measured: binding result

B1: monoclonal antibody 16D7 (antibody, V domains shown)
VH: EVQLQQSGPELVKPGASVKMSCKASGYKFTSYVMHWVKQKPGQGLEWIGYINPSNDNIKYNEKFKGKAILTLDKSSSTAYMAFSSLTSEDSAVYYCATLTGVDYWGQGTTLTVSS
VL: DVVMTQTPLSLSVTIGQPASISCKSSQSLLYRNGKIYLNWLQQRPGQAPKHLMSQVSKLDPGIPDRFSGSGSETDFTLKISRVEAEDLGVYYCLQGTHYPYTFGGGTKLEIKR
notes: also called MAb 16D7; HRP-16D7
binds: all assays above
